Source: patent publication US20180016346A1 (Kyowa Kirin, published 2018)

B1: anti-hPSMA monoclonal antibody PI134 antibody (antibody, human IgG1, V domains shown)
VH: QVQLVQSGAEVKKPGASVKVSCKASGYTFTTYDINWVRQATGQGLEWMGWMNPNNGYTGYAQKFQGRVTMTRNTSISTAYMELSSLRSEDTAVYYCARTNWVYWYFDLWGRGTLVTVSS
VL: EIVLTQSPATLSLSPGERATLSCRASQSVSSFLAWYQQKPGQAPRLLIYDASNRATGIPARFSGSGSGTDFTLTISSLEPEDFAVYYCQQRSNWPLTFGPGTKVDIKR
notes: Its VL is the same as that of the E11 antibody
B2: hTRAILR2-hPSMA bispecific antibody E11-CH1-PN170VH antibody (bispecific antibody, IgG4)
heavy: not shown
VL: EIVLTQSPATLSLSPGERATLSCRASQSVSSFLAWYQQKPGQAPRLLIYDASNRATGIPARFSGSGSGTDFTLTISSLEPEDFAVYYCQQRSNWPLTFGPGTKVDIKR
notes: domain: constant region; The heavy chain is E11 VH, an IgG4 CH1 linker and PN170 VH, followed by the constant region of the vector; All four light chains carry E11 VL
B3: hTRAILR2-hPSMA heterobispecific antibody E11_PN7 Hetero antibody (bispecific antibody, human IgG1)
heavy 1: not shown
heavy 2: not shown
VL: EIVLTQSPATLSLSPGERATLSCRASQSVSSFLAWYQQKPGQAPRLLIYDASNRATGIPARFSGSGSGTDFTLTISSLEPEDFAVYYCQQRSNWPLTFGPGTKVDIKR
notes: also called hE11_PN7 Hetero antibody
B4: hTRAILR2-hPSMA bispecific antibody fragment E11-CH1-PN7VH Fab (bispecific antibody)
heavy: QLQLQESGPGLVKPSETLSLTCTVSGGSIISKSSYWGWIRQPPGKGLEWIGSIYYSGSTFYNPSLKSRVTISVDTSKNQFSLKLSSVTAADTAVYYCARLTVAEFDYWGQGTLVTVSSASTKGPSVFPLAPCSRSTSESTAALGCLVKDYFPEPVTVSWNSGALTSGVHTFPAVLQSSGLYSLSSVVTVPSSSLGTKTYTCNVDHKPSNTKVDKRVEVQLVQSGAEVKKPGASVKVSCKASGYTFTTYDINWVRQATGQGLEWMGWMNPNSGYTGYAQKFQGRVTMTRDTSISTAYMELSSLRSEDTAVYYCARTNWESWYFDLWGRGTLVTVSSASTKGPSVFPLAPCSRSTSESTAALGCLVKDYFPEPVTVSWNSGALTSGVHTFPAVLQSSGLYSLSSVVTVPSSSLGTKTYTCNVDHKPSNTKVDKRVDYKDDDDKHHHHHH
VL: EIVLTQSPATLSLSPGERATLSCRASQSVSSFLAWYQQKPGQAPRLLIYDASNRATGIPARFSGSGSGTDFTLTISSLEPEDFAVYYCQQRSNWPLTFGPGTKVDIKR
notes: The hinge region is deleted from E11-CH1-PN7VH F(ab′)2; The light chains carry E11 VL, as in the F(ab′)2
B5: hTRAILR2-hPSMA bispecific antibody fragment E11-CH1-PN7VH F(ab′)2 (bispecific antibody)
heavy: QLQLQESGPGLVKPSETLSLTCTVSGGSIISKSSYWGWIRQPPGKGLEWIGSIYYSGSTFYNPSLKSRVTISVDTSKNQFSLKLSSVTAADTAVYYCARLTVAEFDYWGQGTLVTVSSASTKGPSVFPLAPCSRSTSESTAALGCLVKDYFPEPVTVSWNSGALTSGVHTFPAVLQSSGLYSLSSVVTVPSSSLGTKTYTCNVDHKPSNTKVDKRVEVQLVQSGAEVKKPGASVKVSCKASGYTFTTYDINWVRQATGQGLEWMGWMNPNSGYTGYAQKFQGRVTMTRDTSISTAYMELSSLRSEDTAVYYCARTNWESWYFDLWGRGTLVTVSSASTKGPSVFPLAPCSRSTSESTAALGCLVKDYFPEPVTVSWNSGALTSGVHTFPAVLQSSGLYSLSSVVTVPSSSLGTKTYTCNVDHKPSNTKVDKRVESKYGPPCPPCPDYKDDDDKHHHHHH
VL: EIVLTQSPATLSLSPGERATLSCRASQSVSSFLAWYQQKPGQAPRLLIYDASNRATGIPARFSGSGSGTDFTLTISSLEPEDFAVYYCQQRSNWPLTFGPGTKVDIKR
notes: CH2 and CH3 are deleted; The heavy chain carries a C-terminal FLAG-tag and His-tag and dimerises through cysteine in the hinge region; All light chains carry E11 VL
B6: hTRAILR2-hPSMA bispecific antibody E11-CH1-PI101VH antibody (bispecific antibody, IgG4)
heavy: not shown
VL: EIVLTQSPATLSLSPGERATLSCRASQSVSSFLAWYQQKPGQAPRLLIYDASNRATGIPARFSGSGSGTDFTLTISSLEPEDFAVYYCQQRSNWPLTFGPGTKVDIKR
notes: domain: constant region; The heavy chain is E11 VH, an IgG4 CH1 linker and PI101 VH, followed by the constant region of the vector; All four light chains carry E11 VL

How the values were obtained:
[1] = target: T1, human prostate specific membrane antigen (hPSMA), membrane form on cells (human, UniProt Q04609 1-750); test: flow cytometry on hPSMA/L929 cells (FIG. 2)
T1 construct: endogenous on LNCaP clone FGC cells; also called membrane hPSMA
T1 sequence (Q04609 whole entry): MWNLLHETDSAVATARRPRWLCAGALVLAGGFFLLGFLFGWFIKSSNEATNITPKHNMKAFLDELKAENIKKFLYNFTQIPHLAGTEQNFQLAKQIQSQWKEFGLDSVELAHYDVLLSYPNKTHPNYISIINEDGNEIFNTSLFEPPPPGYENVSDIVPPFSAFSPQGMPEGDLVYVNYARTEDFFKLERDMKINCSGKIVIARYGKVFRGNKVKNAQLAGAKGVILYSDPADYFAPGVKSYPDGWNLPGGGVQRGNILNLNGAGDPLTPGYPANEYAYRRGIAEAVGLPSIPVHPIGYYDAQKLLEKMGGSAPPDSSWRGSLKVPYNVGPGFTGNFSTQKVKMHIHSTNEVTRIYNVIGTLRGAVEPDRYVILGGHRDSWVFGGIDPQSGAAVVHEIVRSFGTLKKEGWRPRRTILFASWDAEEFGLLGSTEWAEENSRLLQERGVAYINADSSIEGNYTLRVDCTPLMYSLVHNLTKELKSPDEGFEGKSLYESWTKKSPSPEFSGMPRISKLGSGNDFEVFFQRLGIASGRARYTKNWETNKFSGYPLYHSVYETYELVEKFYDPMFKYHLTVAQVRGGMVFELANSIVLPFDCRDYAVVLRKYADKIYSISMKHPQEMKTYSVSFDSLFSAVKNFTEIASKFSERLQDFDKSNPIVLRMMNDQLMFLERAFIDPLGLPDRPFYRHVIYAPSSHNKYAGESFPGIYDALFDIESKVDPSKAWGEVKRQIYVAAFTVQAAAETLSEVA
Protocol: (§1) The cells were suspended in a staining buffer [PBS containing 0.1% NaN₃ and 1% FBS] at a concentration of 1×10⁶ cells/mL, and dispensed in a round-bottom 96-well plate (manufactured by Becton Dickinson) by 100 μL/well. After the centrifugation (2000 rpm, 4° C., 2 minutes), each antibody obtained in Example 7 was added to the pellet obtained by removing the supernatant, and suspended, and then left stand at ice temperature for 30 minutes.
(§2) After the further centrifugation (2000 rpm, 4° C., 2 minutes), the pellet obtained by removing the supernatant was washed twice with 200 μL/well of the staining buffer. Thereafter, 1 μg/mL of RPE fluorescently labeled mouse anti-human antibody (hinge region) clone 4E3 antibody (manufactured by Southern Bioblot) was added thereto by 50 μL/well and incubated at ice temperature for 30 minutes. After washing twice with the staining buffer, the cells were suspended in 200 μL/well of the staining buffer, and the fluorescence intensity of each cell was measured with the flow cytometer FACSCANTO II (manufactured by Becton Dickinson). The obtained results are illustrated in FIG. 2 and FIG. 3.
hPSMA/L929 cells were stained with anti-TRAILR2 monoclonal antibody E11 antibody, anti-hPSMA monoclonal antibody PI134 antibody, or hTRAILR2-hPSMA bispecific antibody E11-CH1-PI101VH antibody, E11-CH1-PN7VH antibody or E11-CH1-PN170VH antibody. The obtained results are illustrated in FIG. 2.

[2] = target: T2, human TRAILR2 (tumor necrosis factor-related apoptosis inducing ligand receptor 2) (human, UniProt O14763 56-440); test: flow cytometry on hTRAILR2/L929 cells (FIG. 3)
T2 construct: whole, on cells; The hTRAILR2/L929 cells are only cited from WO 2002/094880, and the construct expressed on them is not described here; On PC3 and LNCaP clone FGC cells the receptor is endogenous; also called hTRAILR2; death receptor 5
Protocol: as §1
as §2, with “3. […]” for “3.”

[3] = target: T1, human prostate specific membrane …; test: flow cytometry

Binder | binding result [1] | binding result [2] | binding result [3]
B1 | binds | no binding | 
B2 | binds |  | 
B3 |  |  | binds
B4 |  |  | binds
B5 |  |  | binds
B6 | binds |  | 
